Assay [1] concerns the target T1, recombinant human aCys-cNTnC (C35S, C84S double mutant), N-terminal regulatory domain of cardiac troponin C (human).
T1 construct: human cardiac/slow skeletal troponin C, N-terminal regulatory domain (cNTnC); Uniformly 15N-labeled for NMR; also called cNTnC domain; isolated cNTnC domain; source: E. coli, expressed and purified as previously described (Cai et al., 2016), lyophilized; 15N-labeled
Description: NMR titration; ssTnI peptide titrated to 0.1-3 equivalents into 15N-labeled cNTnC·RPI-194 complex (115 µM, 1:1 protein and drug); 100 mM KCl, 10 mM imidazole, pH ~6.7, 30°C; 2D 1H,15N HSQC; KD from TITAN, two-state model. Conditions: both partners purified.

Assay [2] concerns the target T1, recombinant human aCys-cNTnC (C35S, …). Description: NMR titration; ssTnI peptide (10 mM stock in d6-DMSO) titrated to 0.5-30 equivalents into 15N-labeled cNTnC (115 µM); 100 mM KCl, 10 mM imidazole, pH ~6.7, 30°C; 2D 1H,15N HSQC; KD from 2D lineshape analysis (TITAN), two-state model; no RPI-194. Conditions: both partners purified.

By Kd is commonly meant a measure of binding affinity in units of concentration.

B1: slow skeletal troponin I switch peptide (ssTnI) (peptide)
chain: RVSADAMLRALLGSKHK
modifications: synthetic peptide; termini not stated. Limits not printed: taken as the ssTnI equivalent (offset -30) of the conventional cTnI switch peptide 147-163, because the paper compares it with the …
In the case of B1, the Kd was determined as 22 µM in assay [1] and 652 µM in assay [2].

The values are drawn from PMC9213791, “Small Molecule RPI-194 Stabilizes Activated Troponin to Increase the Calcium Sensitivity of Striated Muscle Contraction” (Frontiers in Physiology, 2022).
